Source: PMC2734165, “The Immune System Strikes Back: Cellular Immune Responses against Indoleamine 2,3-dioxygenase” (PLoS ONE, 2009)

B1: IFN-γ: IFN-γ, 100 U/ml for 2 days (protein, UniProt P01579 24-161, looked up)
Interferon gamma: QDPYVKEAENLKKYFNAGHSDVADNGTLFLGILKNWKEESDRKIMQSQIVSFYFKLFKNFKDDQSIQKSVETIKEDMNVKFFNSNKKKRDDFEKLTNYSVTDLNVQRKAIHELIQVMAELSPAAKTGKRKRSQMLFRG

Legend:
[1] = test system: established murine cancers; settings: ref [17]; cited from earlier work
Text: The state of lymphopenia following high-dose chemotherapy appears to provide a window of enhanced responsiveness to immunotherapy. Additionally, certain chemotherapeutic drugs may assist in breaking immune tolerance by preferentially inhibition of Tregs, [47]. Nonetheless, chemotherapy alone is never sufficient to break tolerance to tumors probably because the original tolerogenic mechanisms rapidly restore tolerance following each cycle of chemotherapy. In principle, therefore, chemotherapy might provide an environment in which IDO-based immunotherapy could have a synergistic ...

[2] = test system: breast cancer cell line CAMA-1; assay: 51Cr-release assay, CAMA-1; format: cell-based; settings: IFN-γ 100 U/ml for 2 days
Experimental: (§1) Conventional ^51Cr-release assays for CTL-mediated cytotoxicity was carried out as described elsewhere. Target cells were T2-cells, in vitro generated autologous immature DC (iDC) and matured DC (mDC), in vitro generated allogeneic HLA-A2^+ iDC and mDC, autologous ex vivo isolated monocytes, T cells and B cells (isolated using CD14^+, CD3^+ or CD19^+ microbeads (MACS)), the natural killer target cell line K562, ex vivo enriched HLA-A2^+ AML-blasts (B and T cells were depleted from the bone marrow of AML patients using CD19^+ and CD3^+ microbeads (MACS)), the breast cancer cell lines CAMA-1 and MDA-MB-231, as well as the colon cancer cell lines HCT-116 and SW480 (all available at the American Type Culture Collection (ATCC)), and FM55M [27]. Lysis were blocked using the HLA specific mAb W6/32 (2 µg/100 µl). In some assays, target cells were treated with 100 U/ml IFN-γ for 2 days.
(§2) Figure 5 Functional capacity of IDO5-specific T cells to kill cancer cell lines treated with IFN-γ for up-regulation of IDO, or treated with IDO ShRNA for down-regulation of IDO. […] Intracellular IDO expression was given by a one-tailed two sampled t-test comparing MFIIDO (dark histograms) and MFIIsotype control (light histograms), where MFI is the Mean Fluorescence Intensity. […]

[3] = test system: breast cancer cell line MDA-MB-231; assay: 51Cr-release assay, MDA-MB-231; format: cell-based; settings: IFN-γ 100 U/ml for 2 days
Experimental: as §1, §2

[4] = test system: autologous CD14^+ monocytes, CD3^+ T cells and CD19^+ B cells; assay: 51Cr-release assay, autologous monocytes, T cells and B cells; format: cell-based; settings: CD19^+ B cells after IFN-γ treatment
Text: Target cells were T2-cells, in vitro generated autologous immature DC (iDC) and matured DC (mDC), in vitro generated allogeneic HLA-A2^+ iDC and mDC, autologous ex vivo isolated monocytes, T cells and B cells (isolated using CD14^+, CD3^+ or CD19^+ microbeads (MACS)), the natural killer target cell line K562, ex vivo enriched HLA-A2^+ AML-blasts (B and T cells were depleted from the bone marrow of AML patients using CD19^+ and CD3^+ microbeads (MACS)), the breast cancer cell lines CAMA-1 and MDA-MB-231, as well as the colon cancer cell lines HCT-116 and SW480 (all available at the American Type Culture Collection (ATCC)), and FM55M [27]. Lysis were blocked using the HLA specific mAb W6/32 (2 µg/100 µl) [28]. In some assays, target cells were treated with 100 U/ml IFN-γ for 2 days.
Next, we tested the ability of RBS35 to lyse autologous monoctyes, T cells and B cells. For this purpose, we isolated CD14^+ monocytes, CD3^+ T cells and CD19^+ B cells directly ex vivo from IDO^+ PBMC. The isolated cells were subsequently used as target cells in a ^51Cr-release assay.
All assays were performed in different E∶T ratios. […] ( c ), Lysis of autologous CD14^+ monocytes, CD3^+ T cells and CD19^+ B cells isolated directly ex vivo from IDO^+ PBMC, and lysis of autologous CD14^+ monocytes, CD3^+ T cells and CD19^+ B cells after IFN-γ treatment. […]

[5] = test system: IDO in CAMA-1 and MDA-MB-231; assay: Intracellular IDO staining, breast cancer cell lines; format: cell-based
Experimental: PBMC, DC, and cancer cells were examined for intracellular IDO expression using flow cytometry. After fixation and permeabilization (Cytofix/Cytoperm, BD), cells were stained with anti-IDO antibody (Millipore Corporation). For comparison, cells were stained with an isotype matched control (Millipore Corporation). After incubation, cells were washed twice with Perm/Washbuffer (BD) before staining with a FITC-labeled secondary antibody (DAKO). The samples were analyzed on BD FACS Aria, using DIVA software (BD Biosciences). Assuming normality, intracellular IDO expression was given by a one-tailed two sampled t-test comparing MFIIDO and MFIIsotype control, where MFI is the Mean Fluorescence Intensity. […]
Statistical analysis was performed on data on intracellular IDO staining. Assuming normality, intracellular IDO expression was given by a one-tailed two sampled t-test comparing MFIIDO and MFIIsotype control, where MFI is the Mean Fluorescence Intensity. […] HLA-A2 expression was determined using the same approach.
as §2

[6] = test system: HLA-A2 on CAMA-1 and MDA-MB-231; assay: HLA-A2 surface staining, breast cancer cell lines; format: cell-based
Experimental: Cancer cells were examined for HLA-A2 expression using flow cytometry. Cells were stained with a fluorochrome-coupled HLA-A2 mAb (BD Bioscience). For comparison, cells were stained with an isotype matched control. The samples were analyzed on BD FACS Aria, using DIVA software (BD Biosciences). Assuming normality, HLA-A2 expression was given by a one-tailed two sampled t-test comparing MFIHLA-A2 and MFIIsotype control, where MFI is the Mean Fluorescence Intensity. For p-values <0.05 (significance level) cells were defined HLA-A2^+. The fold of expression was defined as MFIHLA-A2/MFIIsotype control.
Statistical analysis was performed on data on intracellular IDO staining. Assuming normality, intracellular IDO expression was given by a one-tailed two sampled t-test comparing MFIIDO and MFIIsotype control, where MFI is the Mean Fluorescence Intensity. For p-values <0.05 (significance level) cells were defined IDO^+. […] HLA-A2 expression was determined using the same approach.
as §2

[7] = CAMA-1 and MDA-MB-231, IFN-γ 100 U/ml for 2 days

Molecule	Synergy with chemotherapy drugs [1]	Effect on killing of CAMA-1 by RBS35 [2]	Effect on killing of MDA-MB-231 by RBS35 [3]	Effect of IFN-γ on killing of autologous immune cells by RBS35 [4]	Fold of IDO expression, MFIIDO/MFIIsotype control ([5]; CAMA-1 + IFN-γ treatment, p = 0.004, before treatment 2.3 (p = 0.020), representative of 3 experiments)	IDO expression after treatment [5, 7]	Fold of HLA-A2 expression (printed as MFIIDO/MFIHLA-A2) ([6]; CAMA-1 + IFN-γ treatment, p = 0.002, before treatment 43.7 (p = 0.004), representative of 3 experiments)	HLA-A2 expression after treatment [6, 7]
Cn1cc(C[C@H](N)C(=O)O)c2ccccc21 [1-Methyl-Tryptophan]	work synergistically with different chemotherapy drugs in established murine cancers							
B1		increased the killing by RBS35 of CAMA-1	introduced killing of the MDA-MB-231 cells	introduced killing of the CD14^+ monocytes, but not of the T and B cells	3.5	increased the expression of IDO and HLA-A2 in both cell lines	141.2	increased the expression of IDO and HLA-A2 in both cell lines
